The values below come from PMC8807474, “Single-Molecule Fluorescence Imaging Reveals GABAB Receptor Aggregation State Changes” (Frontiers in Chemistry, 2021).

One data set has as its system O75899. Kind of data set: single-molecule photobleaching step counting (TIRFM); GBR1-EGFP co-expressed with unlabeled GBR2 in HEK293 cells; EGFP spots on the cell membrane; one bleaching step = one heterodimer, two steps = tetramer of two heterodimers (heterodimers to tetramer); resting state; also after 1 mM GABA …. The settings on record: other: single-molecule photobleaching step counting (TIRFM).

Data set [1] concerns the molecule itself. The data set can be described thus: single-molecule photobleaching step counting (TIRFM); GBR2-EGFP expressed alone at low expression level in HEK293 cells; EGFP spots on the cell membrane; monomer to homodimer.

As for “GABAB receptor heterodimer GBR1-EGFP/GBR2”, in the data set on O75899, the “percent of spots with one-step bleaching (single heterodimer)” value is reported as “about 50% population” and the “percent of spots with two-step bleaching (tetramer of two heterodimers)” value is listed as “about 30% receptors”.

B1: GBR2-EGFP (receptor, UniProt O75899 42-941, looked up)
chain: WARGAPRPPPSSPPLSIMGLMPLTKEVAKGSIGRGVLPAVELAIEQIRNESLLRPYFLDLRLYDTECDNAKGLKAFYDAIKYGPNHLMVFGGVCPSVTSIIAESLQGWNLVQLSFAATTPVLADKKKYPYFFRTVPSDNAVNPAILKLLKHYQWKRVGTLTQDVQRFSEVRNDLTGVLYGEDIEISDTESFSNDPCTSVKKLKGNDVRIILGQFDQNMAAKVFCCAYEENMYGSKYQWIIPGWYEPSWWEQVHTEANSSRCLRKNLLAAMEGYIGVDFEPLSSKQIKTISGKTPQQYEREYNNKRSGVGPSKFHGYAYDGIWVIAKTLQRAMETLHASSRHQRIQDFNYTDHTLGRIILNAMNETNFFGVTGQVVFRNGERMGTIKFTQFQDSREVKVGEYNAVADTLEIINDTIRFQGSEPPKDKTIILEQLRKISLPLYSILSALTILGMIMASAFLFFNIKNRNQKLIKMSSPYMNNLIILGGMLSYASIFLFGLDGSFVSEKTFETLCTVRTWILTVGYTTAFGAMFAKTWRVHAIFKNVKMKKKIIKDQKLLVIVGGMLLIDLCILICWQAVDPLRRTVEKYSMEPDPAGRDISIRPLLEHCENTHMTIWLGIVYAYKGLLMLFGCFLAWETRNVSIPALNDSKYIGMSVYNVGIMCIIGAAVSFLTRDQPNVQFCIVALVIIFCSTITLCLVFVPKLITLRTNPDAATQNRRFQFTQNQKKEDSKTSTSVTSVNQASTSRLEGLQSENHRLRMKITELDKDLEEVTMQLQDTPEKTTYIKQNHYQELNDILNLGNFTESTDGGKAILKNHLDQNPQLQWNTTEPSRTCKDPIEDINSPEHIQRRLSLQLPILHHAYLPSIGGVDASCVSPCVSPTASPRHRHVPPSFRVMVSGL
notes: GABAB receptor subunit 2 (GBR2, GABAB2); source: HEK293, transfected, expressed alone at low expression level, on cells
For the molecule B1, the “stoichiometry N” value in data set [1] was determined as 2.

The stoichiometry N is a count of units in the complex or per binding partner.
